Measurements: patent US20240400705A1 (SYNERGY IMT, published 2024)

How the values were obtained:
[1] = molecular target: T1, TROP2 on DLD1 colon cancer cells (UniProt P09758 27-323, limits assumed); assay: cell-based or functional assay
T1 sequence (looked up): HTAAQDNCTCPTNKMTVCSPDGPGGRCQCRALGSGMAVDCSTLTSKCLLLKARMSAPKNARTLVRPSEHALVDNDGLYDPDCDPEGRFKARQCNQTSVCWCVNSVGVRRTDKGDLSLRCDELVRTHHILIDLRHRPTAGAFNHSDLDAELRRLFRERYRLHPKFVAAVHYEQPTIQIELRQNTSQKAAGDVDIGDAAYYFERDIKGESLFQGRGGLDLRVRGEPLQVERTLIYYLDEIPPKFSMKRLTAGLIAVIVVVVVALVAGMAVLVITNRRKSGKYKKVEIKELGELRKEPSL

[2] = molecular target: CD137 on cells (CD137 reporter cell line, Promega; expanded T cells) (UniProt Q07011 24-255, limits assumed); assay: cell-based or functional assay
Chain of CD137 on cells (CD137 reporter cell line, Promega; expanded T cells) (Q07011 24-255 limits assumed): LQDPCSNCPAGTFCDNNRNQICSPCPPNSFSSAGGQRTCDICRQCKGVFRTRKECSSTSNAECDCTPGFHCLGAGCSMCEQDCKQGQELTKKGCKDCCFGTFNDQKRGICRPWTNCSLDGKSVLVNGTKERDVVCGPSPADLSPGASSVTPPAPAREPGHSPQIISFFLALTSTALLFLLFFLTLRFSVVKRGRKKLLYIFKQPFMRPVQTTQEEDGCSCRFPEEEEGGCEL

CD3 on T cells = molecular target: T2, CD3 on T cells (UniProt P07766 23-207); assay: flow cytofluorimetry on expanded T cells, 250 nM; bar = MFI, marker = percent positive
T2 construct: whole, on cells; CD3 is a complex; also called T cell CD3
T2 sequence (P07766 23-207): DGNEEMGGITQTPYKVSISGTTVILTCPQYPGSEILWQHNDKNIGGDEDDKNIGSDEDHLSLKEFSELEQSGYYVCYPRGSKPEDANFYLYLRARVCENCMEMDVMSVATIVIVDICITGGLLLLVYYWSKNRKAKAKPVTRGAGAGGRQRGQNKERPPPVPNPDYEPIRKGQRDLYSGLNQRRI
Description: (§1) The binding of the multispecific recombinant antigen binding molecules to expanded T cells (FIG. 6D) and to the colon tumor cell line DLD1 (FIG. 6A) was determined by flow cytofluorimetry. Binding was conducted with a saturating concentration (250 nM). The T cells were expanded in culture from immunocult ([…] Technologies) stimulated peripheral blood mononuclear cells that were maintained in culture for at least 30 days. Multispecific recombinant antigen binding molecules were produced in HEK293 cells and one-step purified by FPLC using a HiTrap Protein A column. The expression of various T cell markers or tumor antigens was determined using commercial antibodies specific for Trop2, CD137, MICA/MICB, Tim4, Tim1 (all purchased from Biolegend). […] Greater levels of binding to DLD1 are associated with binding to PS and in particular bivalent binding to PS (e.g., 17v7-18v9).

[3] = molecular target: T1, TROP2 on DLD1 colon cancer cells; assay: flow cytofluorimetry on DLD1 colon tumor cells, 250 nM; bar = MFI, marker = percent positive
Description: as §1

[4] = molecular target: T1, TROP2 on DLD1 colon cancer cells; assay: flow cytofluorimetry on DLD1 colon tumor cells, 250 nM; bar = MFI, marker = percent positive; the molecule also carries a b2GP1 D5 domain for phosphatidylserine
Description: as §1

B1: TetrAx 17v16-18v23 (Trop2 x CD3) (bispecific antibody)
light: DIQLTQSPSSLSASVGDRVSITCKASQDVSIAVAWYQQKPGKAPKLLIYSASYRTTGVPDRFSGSGSGTDFTLTISSLQPEDFAVYYCQQHYITPLTFGAGTKVEIKRTVAAPSVFIFPPSDEQLKSGTASVVCLLNNFYPREAKVQWKVDNALQSGNSQESVTEQDSKDSTYSLSSTLTLSKADYEKQKVYACEVTHQGLSSPVTKSFLRGECGGPAGGGGGTHTCPPCPAPEAAGGPSVFLFPPKPKDTLMISRTPEVTCVVVDVSHEDPEVKFNWYVDGVEVHNAKTKPREEQYNSTYRVVSVLTVLHQDWLNGKEYKCKVSNKALPAPIEKTISKAKGQPREPQVCTLPPSRDELTKNQVSLSCAVKGFYPSDIAVEWESNGQPENNYKTTPPVLDSDGSFFLVSKLTVDKSRWQQGNVFSCSVMHEALHNHYTQKSLSLSPGK
heavy: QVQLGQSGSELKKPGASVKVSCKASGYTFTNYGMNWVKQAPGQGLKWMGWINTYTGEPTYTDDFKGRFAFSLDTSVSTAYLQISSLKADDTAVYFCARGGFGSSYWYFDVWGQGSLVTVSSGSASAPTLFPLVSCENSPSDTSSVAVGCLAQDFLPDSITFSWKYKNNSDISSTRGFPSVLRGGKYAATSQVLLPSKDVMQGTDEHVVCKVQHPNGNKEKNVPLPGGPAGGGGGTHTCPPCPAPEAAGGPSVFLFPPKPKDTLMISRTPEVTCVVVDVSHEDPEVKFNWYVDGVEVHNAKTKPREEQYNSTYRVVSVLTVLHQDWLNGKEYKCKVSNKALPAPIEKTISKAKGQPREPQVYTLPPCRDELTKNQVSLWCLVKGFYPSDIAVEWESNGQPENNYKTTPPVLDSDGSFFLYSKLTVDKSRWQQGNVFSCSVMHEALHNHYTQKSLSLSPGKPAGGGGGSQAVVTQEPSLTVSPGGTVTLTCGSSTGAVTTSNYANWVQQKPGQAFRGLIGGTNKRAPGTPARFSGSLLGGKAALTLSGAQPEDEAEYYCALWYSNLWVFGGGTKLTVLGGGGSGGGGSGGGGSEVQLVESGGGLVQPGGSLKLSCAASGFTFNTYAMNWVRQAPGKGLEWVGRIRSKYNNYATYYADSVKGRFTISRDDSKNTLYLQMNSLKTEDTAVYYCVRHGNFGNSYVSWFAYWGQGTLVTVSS
For B1, the “DLD1 cytotoxicity EC50 (18 h, T cells)” value [1] was 8 pM.

B2: TetrAx 20v8-18v26 (Trop2 x CD137, two CD137L domains) (bispecific antibody)
light: DIQLTQSPSSLSASVGDRVSITCKASQDVSIAVAWYQQKPGKAPKLLIYSASYRTTGVPDRFSGSGSGTDFTLTISSLQPEDFAVYYCQQHYITPLTFGAGTKVEIKRTVAAPSVFIFPPSDEQLKSGTASVVCLLNNFYPREAKVQWKVDNALQSGNSQESVTEQDSKDSTYSLSSTLTLSKADYEKQKVYACEVTHQGLSSPVTKSFLRGECGGPAGGGGGTHTCPPCPAPEAAGGPSVFLFPPKPKDTLMISRTPEVTCVVVDVSHEDPEVKFNWYVDGVEVHNAKTKPREEQYNSTYRVVSVLTVLHQDWLNGKEYKCKVSNKALPAPIEKTISKAKGQPREPQVCTLPPSRDELTKNQVSLSCAVKGFYPSDIAVEWESNGQPENNYKTTPPVLDSDGSFFLVSKLTVDKSRWQQGNVFSCSVMHEALHNHYTQKSLSLSPGKGGGGGGMFAQLVAQNVLLIDGPLSWYSDPGLAGVSLTGGLSYKEDTKELVVAKAGVYYVFFQLELRRVVAGEGSGSVSLALHLQPLRSAAGAAALALTVDLPPASSEARNSAFGFQGRLLHLSAGQRLGVHLHTEARARHAWQLTQGATVLGLFRVTP
heavy: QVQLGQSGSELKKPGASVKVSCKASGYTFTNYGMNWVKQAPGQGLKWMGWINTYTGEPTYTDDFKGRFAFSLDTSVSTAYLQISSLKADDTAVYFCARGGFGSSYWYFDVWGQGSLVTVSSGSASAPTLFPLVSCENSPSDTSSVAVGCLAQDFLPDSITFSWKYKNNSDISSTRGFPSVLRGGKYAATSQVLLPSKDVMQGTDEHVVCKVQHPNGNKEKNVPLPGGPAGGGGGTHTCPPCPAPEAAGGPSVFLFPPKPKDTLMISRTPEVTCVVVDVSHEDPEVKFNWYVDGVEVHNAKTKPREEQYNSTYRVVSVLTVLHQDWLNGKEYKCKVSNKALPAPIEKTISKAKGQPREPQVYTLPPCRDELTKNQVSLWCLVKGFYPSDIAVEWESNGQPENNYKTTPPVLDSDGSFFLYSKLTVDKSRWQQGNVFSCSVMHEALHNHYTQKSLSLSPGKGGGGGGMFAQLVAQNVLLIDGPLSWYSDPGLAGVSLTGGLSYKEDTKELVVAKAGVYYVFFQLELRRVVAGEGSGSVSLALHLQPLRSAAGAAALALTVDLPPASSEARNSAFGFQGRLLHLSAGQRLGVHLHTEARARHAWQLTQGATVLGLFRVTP
notes: also called dual CD137L TetrAx
For B2, the “CD137 signaling relative to the TetrAx with a single CD137L domain” value [2] was 3 fold, the “T cell DLD1 cytotoxicity EC50” value [2] was 300 pM and the binding result (CD3 on T cells) was “no binding (tested: 250 nM)”.

B3: TetrAx 20v8-18v22 (Trop2 x CD137, one CD137L domain) (bispecific antibody)
light: B2 light
heavy: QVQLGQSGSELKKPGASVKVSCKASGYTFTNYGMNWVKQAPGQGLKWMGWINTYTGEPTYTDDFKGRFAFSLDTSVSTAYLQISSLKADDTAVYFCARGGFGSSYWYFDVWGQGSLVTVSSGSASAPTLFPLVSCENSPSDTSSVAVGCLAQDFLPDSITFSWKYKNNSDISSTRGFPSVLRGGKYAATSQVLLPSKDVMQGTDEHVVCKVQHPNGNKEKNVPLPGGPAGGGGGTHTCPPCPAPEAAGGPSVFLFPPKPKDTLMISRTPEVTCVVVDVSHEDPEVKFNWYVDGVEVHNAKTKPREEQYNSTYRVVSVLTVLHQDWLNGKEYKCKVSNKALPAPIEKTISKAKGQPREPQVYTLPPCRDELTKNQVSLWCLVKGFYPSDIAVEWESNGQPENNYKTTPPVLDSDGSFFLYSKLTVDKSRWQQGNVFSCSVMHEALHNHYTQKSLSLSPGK
notes: CD137L domain is residues 90 to 242 (THD)
For B3, the “T cell DLD1 cytotoxicity” value [2] was 40 fold, the binding result [3] was “binds” and the binding result (CD3 on T cells) was “no binding (tested: 250 nM)”.

B4: TetrAx 17v17-18v23 (PS x Trop2 x CD3) (bispecific antibody)
light: DIQLTQSPSSLSASVGDRVSITCKASQDVSIAVAWYQQKPGKAPKLLIYSASYRTTGVPDRFSGSGSGTDFTLTISSLQPEDFAVYYCQQHYITPLTFGAGTKVEIKRTVAAPSVFIFPPSDEQLKSGTASVVCLLNNFYPREAKVQWKVDNALQSGNSQESVTEQDSKDSTYSLSSTLTLSKADYEKQKVYACEVTHQGLSSPVTKSFLRGECGGPAGGGGGTHTCPPCPAPEAAGGPSVFLFPPKPKDTLMISRTPEVTCVVVDVSHEDPEVKFNWYVDGVEVHNAKTKPREEQYNSTYRVVSVLTVLHQDWLNGKEYKCKVSNKALPAPIEKTISKAKGQPREPQVCTLPPSRDELTKNQVSLSCAVKGFYPSDIAVEWESNGQPENNYKTTPPVLDSDGSFFLVSKLTVDKSRWQQGNVFSCSVMHEALHNHYTQKSLSLSPGKGGGGGGASCKVPVKKATVVYQGERVKIQEKFKNGMLHGDKVSFFCKNKEKKCSYTEDAQCIDGTIEVPKCFKEHSSLAFWKTDASDVKPC
heavy: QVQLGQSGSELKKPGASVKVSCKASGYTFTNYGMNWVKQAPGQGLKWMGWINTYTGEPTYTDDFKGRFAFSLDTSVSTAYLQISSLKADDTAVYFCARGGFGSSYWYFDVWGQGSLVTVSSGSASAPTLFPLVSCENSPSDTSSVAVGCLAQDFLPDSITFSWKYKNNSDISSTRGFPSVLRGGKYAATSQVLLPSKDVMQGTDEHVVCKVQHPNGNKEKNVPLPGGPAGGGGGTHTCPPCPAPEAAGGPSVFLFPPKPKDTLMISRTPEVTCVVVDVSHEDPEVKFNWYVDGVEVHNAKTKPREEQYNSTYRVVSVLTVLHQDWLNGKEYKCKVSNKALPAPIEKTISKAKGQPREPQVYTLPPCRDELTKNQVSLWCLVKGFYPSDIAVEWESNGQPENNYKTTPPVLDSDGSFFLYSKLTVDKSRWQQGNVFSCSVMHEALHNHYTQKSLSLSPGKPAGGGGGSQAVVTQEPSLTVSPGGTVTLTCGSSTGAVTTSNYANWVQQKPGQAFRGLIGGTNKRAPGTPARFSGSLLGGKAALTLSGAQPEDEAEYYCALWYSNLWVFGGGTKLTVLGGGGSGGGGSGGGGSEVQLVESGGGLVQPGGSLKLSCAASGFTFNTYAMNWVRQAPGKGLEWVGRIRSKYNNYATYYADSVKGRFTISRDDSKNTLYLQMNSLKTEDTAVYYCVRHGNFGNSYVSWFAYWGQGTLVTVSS
With B4 the “DLD1 cytotoxicity EC50 (18 h, T cells)” value [1] was 0.5 pM and the “DLD1 cytotoxicity EC50 in a 3D tumor model (spheroids, T cells 2:1)” value [1] was 21 pM.

B5: 17v17-18v22 (bispecific antibody)
light chain 17v17: B4 light
heavy chain 18v22: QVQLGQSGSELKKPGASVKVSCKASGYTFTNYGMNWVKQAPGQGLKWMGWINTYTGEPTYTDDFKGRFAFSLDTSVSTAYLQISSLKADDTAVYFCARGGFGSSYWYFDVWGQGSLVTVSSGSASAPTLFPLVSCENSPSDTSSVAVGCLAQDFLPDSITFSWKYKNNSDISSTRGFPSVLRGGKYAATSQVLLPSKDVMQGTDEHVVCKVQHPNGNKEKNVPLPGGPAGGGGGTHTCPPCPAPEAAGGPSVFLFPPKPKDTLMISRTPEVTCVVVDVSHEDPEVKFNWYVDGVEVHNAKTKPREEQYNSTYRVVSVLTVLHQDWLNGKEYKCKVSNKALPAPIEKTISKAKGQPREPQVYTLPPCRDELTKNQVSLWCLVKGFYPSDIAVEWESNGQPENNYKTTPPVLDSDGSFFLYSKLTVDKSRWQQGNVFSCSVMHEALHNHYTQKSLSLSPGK
notes: also called TROP2 - PS (control)
B5: binds [4].

B6: TetrAx 17v9-18 (Trop2 x CD3) (bispecific antibody)
light: QAVVTQEPSLTVSPGGTVTLTCGSSTGAVTTSNYANWVQEKPGQAFRGLIGGTNKRAPGTPARFSGSLLGGKAALTLSGAQPEDEAEYYCALWYSNLWVFGCGTKLTVLRTVAAPSVFIFPPSDEQLKSGTASVVCLLNNFYPREAKVQWKVDNALQSGNSQESVTEQDSKDSTYSLSSTLTLSKADYEKHKVYACEVTHQGLSSPVTKSFNRGECGGPAGGGGGTHTCPPCPAPEAAGGPSVFLFPPKPKDTLMISRTPEVTCVVVDVSHEDPEVKFNWYVDGVEVHNAKTKPREEQYNSTYRVVSVLTVLHQDWLNGKEYKCKVSNKALPAPIEKTISKAKGQPREPQVCTLPPSRDELTKNQVSLSCAVKGFYPSDIAVEWESNGQPENNYKTTPPVLDSDGSFFLVSKLTVDKSRWQQGNVFSCSVMHEALHNHYTQKSLSLSPGKGGGGGGQVQLGQSGSELKKPGASVKVSCKASGYTFTSYAMNWVRQAPGQGLKWMGWINTYTGETPYTDDFKGRFAFSLDTSVSTAYLQISSLKADDTAVYFCARGGFGSSYWYFDVWGQGTLVTVSSGGGGSGGGGSGGGGSDIQLTQSPSSLSASVGDRVSITCKASQDVSIAVAWYQQKPGKAPKLLIYSASYRYTGVPDRFSGSGSGTDFTLTISSLQPEDFAVYYCQQHYITPLTFGAGTKVEIK
heavy: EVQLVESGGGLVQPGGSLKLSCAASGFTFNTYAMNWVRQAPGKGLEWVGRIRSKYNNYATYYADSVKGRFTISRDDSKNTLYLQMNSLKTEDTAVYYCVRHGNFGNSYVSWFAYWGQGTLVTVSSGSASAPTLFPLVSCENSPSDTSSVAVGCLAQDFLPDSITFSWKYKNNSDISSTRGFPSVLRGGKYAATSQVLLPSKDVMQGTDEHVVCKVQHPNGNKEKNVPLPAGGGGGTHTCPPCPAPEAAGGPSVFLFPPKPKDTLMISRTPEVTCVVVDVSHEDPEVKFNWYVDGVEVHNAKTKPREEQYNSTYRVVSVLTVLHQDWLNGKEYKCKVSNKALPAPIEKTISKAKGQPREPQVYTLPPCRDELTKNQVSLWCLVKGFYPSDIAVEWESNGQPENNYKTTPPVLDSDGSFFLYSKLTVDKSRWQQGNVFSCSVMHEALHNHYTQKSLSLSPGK
In the case of B6, the “DLD1 cytotoxicity EC50 (18 h, T cells)” value [1] is reported as about 3 pM.
